Substitutions are numbered along the chain they refer to. In names and notes the source's numbering stands.
B1: W62E: CD19 variant (protein)
chain: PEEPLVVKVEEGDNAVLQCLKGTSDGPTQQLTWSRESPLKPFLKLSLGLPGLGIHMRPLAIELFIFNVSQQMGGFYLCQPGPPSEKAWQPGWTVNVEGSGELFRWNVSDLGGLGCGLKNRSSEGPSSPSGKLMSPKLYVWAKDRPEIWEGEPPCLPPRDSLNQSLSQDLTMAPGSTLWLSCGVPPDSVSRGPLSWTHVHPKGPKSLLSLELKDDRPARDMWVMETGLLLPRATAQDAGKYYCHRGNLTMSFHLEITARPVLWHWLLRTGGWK
B2: W264D: CD19 variant (protein)
chain: B1 chain with E62W, W264D
B3: L20G: CD19 variant (protein)
chain: B1 chain with L20G, E62W
B4: W262K: CD19 variant (protein)
chain: B1 chain with E62W, W262K
B5: F64V: CD19 variant (protein)
chain: B1 chain with E62W, F64V
B6: A257K: CD19 variant (protein)
chain: B1 chain with E62W, A257K
B7: V260S: CD19 variant (protein)
chain: B1 chain with E62W, V260S
B8: L261K: CD19 variant (protein)
chain: B1 chain with E62W, L261K
B9: A257R: CD19 variant (protein)
chain: B1 chain with E62W, A257R
B10: V16W: CD19 variant (protein)
chain: B1 chain with V16W, E62W
B11: R57G: CD19 variant (protein)
chain: B1 chain with R57G, E62W
B12: K212A: CD19 variant (protein)
chain: B1 chain with E62W, K212A
B13: W262D: CD19 variant (protein)
chain: B1 chain with E62W, W262D
B14: W264N: CD19 variant (protein)
chain: B1 chain with E62W, W264N
B15: W62W/F64V/F66A: CD19 variant (protein)
chain: B1 chain with E62W, F64V, F66A
B16: W62E/F64E/F66V: CD19 variant (protein)
chain: B1 chain with F64E, F66V
B17: E224G/G226S/L228M: CD19 variant (protein)
chain: B1 chain with E62W, E224G, G226S, L228M
B18: W62Y/F64S/F66R: CD19 variant (protein)
chain: B1 chain with E62Y, F64S, F66R
B19: W62S/F64R/F66S: CD19 variant (protein)
chain: B1 chain with E62S, F64R, F66S
B20: E224G/G226E/L228I: CD19 variant (protein)
chain: B1 chain with E62W, E224G, G226E, L228I
B21: W62R/F64V/F66R: CD19 variant (protein)
chain: B1 chain with E62R, F64V, F66R
B22: W62T/F64A/F66S: CD19 variant (protein)
chain: B1 chain with E62T, F64A, F66S
B23: W62E/F64R/F66R: CD19 variant (protein)
chain: B1 chain with F64R, F66R
B24: W62D/F64V/F66M: CD19 variant (protein)
chain: B1 chain with E62D, F64V, F66M
B25: W62W/F64S/F66S: CD19 variant (protein)
chain: B1 chain with E62W, F64S, F66S
B26: W62T/F64V/F66P: CD19 variant (protein)
chain: B1 chain with E62T, F64V, F66P
B27: L59N/I61V/L63L: CD19 variant (protein)
chain: B1 chain with L59N, I61V, E62W
B28: W62H/F64F/F66R: CD19 variant (protein)
chain: B1 chain with E62H, F66R
B29: E224G/G226V/L228V: CD19 variant (protein)
chain: B1 chain with E62W, E224G, G226V, L228V
B30: E224G/G226R/L228V: CD19 variant (protein)
chain: B1 chain with E62W, E224G, G226R, L228V
B31: W62E/F64V/F66V: CD19 variant (protein)
chain: B1 chain with F64V, F66V
B32: E224E/G226E/L228V: CD19 variant (protein)
chain: B1 chain with E62W, G226E, L228V
B33: W62T/F64V/F66F: CD19 variant (protein)
chain: B1 chain with E62T, F64V
B34: E224G/G226D/L228V: CD19 variant (protein)
chain: B1 chain with E62W, E224G, G226D, L228V
B35: W62A/F64R/F66L: CD19 variant (protein)
chain: B1 chain with E62A, F64R, F66L
B36: E224G/G226R/L228F: CD19 variant (protein)
chain: B1 chain with E62W, E224G, G226R, L228F
B37: W62D/F64L/F66P: CD19 variant (protein)
chain: B1 chain with E62D, F64L, F66P
B38: W62E/F64R/F66P: CD19 variant (protein)
chain: B1 chain with F64R, F66P
B39: W62E/F64W/F66R: CD19 variant (protein)
chain: B1 chain with F64W, F66R
B40: W62S/F64V/F66A: CD19 variant (protein)
chain: B1 chain with E62S, F64V, F66A
B41: W62R/F64A/F66F: CD19 variant (protein)
chain: B1 chain with E62R, F64A
B42: W62T/F64R/F66Q: CD19 variant (protein)
chain: B1 chain with E62T, F64R, F66Q
B43: W62D/F64V/F66R: CD19 variant (protein)
chain: B1 chain with E62D, F64V, F66R
B44: E224D/G226V/L228V: CD19 variant (protein)
chain: B1 chain with E62W, E224D, G226V, L228V
B45: W62E/F64C/F66S: CD19 variant (protein)
chain: B1 chain with F64C, F66S
B46: E224G/G226A/L228T: CD19 variant (protein)
chain: B1 chain with E62W, E224G, G226A, L228T

Each molecule was assayed on FMC63 (assay: CD19 variant binding to anti-CD19 antibody FMC63 (score)). Details: Table 1A, CD19 single mutants (positions of SEQ ID NO:2).
FMC63, sequence (as listed by the source): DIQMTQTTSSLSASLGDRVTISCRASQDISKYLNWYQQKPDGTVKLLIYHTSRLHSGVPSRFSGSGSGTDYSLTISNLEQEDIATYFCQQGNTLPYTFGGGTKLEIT
FMC63, sequence (as listed by the source): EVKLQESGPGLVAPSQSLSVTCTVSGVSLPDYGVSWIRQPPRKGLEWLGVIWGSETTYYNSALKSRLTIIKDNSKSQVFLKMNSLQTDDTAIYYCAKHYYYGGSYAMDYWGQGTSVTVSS
In the case of B1, the “FMC63 Binding Score” value is reported as 6.4 ± .7.
With B2 the “FMC63 Binding Score” value was 6.2 ± .6.
B3 was tested, and the “FMC63 Binding Score” value was 5.7 ± .2.
For B4, the “FMC63 Binding Score” value was 8.2 ± .7.
In the case of B5, the “FMC63 Binding Score” value is reported as 6. ± .4.
With B6 the “FMC63 Binding Score” value was 6.1 ± .5.
B7 was tested, and the “FMC63 Binding Score” value was 5.8 ± .3.
For B8, the “FMC63 Binding Score” value was 6.2 ± .6.
For B9, the “FMC63 Binding Score” value was 6.1 ± .5.
With B10 the “FMC63 Binding Score” value was 6.7 ± 1.
In the case of B11, the “FMC63 Binding Score” value is reported as 5.7 ± .2.
B12 was tested, and the “FMC63 Binding Score” value was 6.1 ± .6.
B13 was tested, and the “FMC63 Binding Score” value was 8.3 ± .8.
In the case of B14, the “FMC63 Binding Score” value is reported as 9. ± 1.3.

Same assay, conditions: Table 1B, CD19 triple mutants
With B15 the “FMC63 Binding Score” value was 13.7 ± 3.2.
B16 was tested, and the “FMC63 Binding Score” value was 16.2 ± 5.5.
For B17, the “FMC63 Binding Score” value was 13.8 ± 3.4.
B18 was tested, and the “FMC63 Binding Score” value was 13.7 ± 3.2.
With B19 the “FMC63 Binding Score” value was 13.2 ± 2.1.
In the case of B20, the “FMC63 Binding Score” value is reported as 14.3 ± 3.4.
B21 was tested, and the “FMC63 Binding Score” value was 12.3 ± 1.6.
In the case of B22, the “FMC63 Binding Score” value is reported as 15.7 ± 5.6.
In the case of B23, the “FMC63 Binding Score” value is reported as 12.4 ± 2.1.
In the case of B24, the “FMC63 Binding Score” value is reported as 16. ± 5.6.
For B25, the “FMC63 Binding Score” value was 14. ± 3.2.
For B26, the “FMC63 Binding Score” value was 16.6 ± 5.5.
B27 was tested, and the “FMC63 Binding Score” value was 13.9 ± 3.2.
For B28, the “FMC63 Binding Score” value was 12.4 ± 2.3.
With B29 the “FMC63 Binding Score” value was 11.2 ± 1.
B30 was tested, and the “FMC63 Binding Score” value was 11. ± .9.
In the case of B31, the “FMC63 Binding Score” value is reported as 13.4 ± 2.5.
In the case of B32, the “FMC63 Binding Score” value is reported as 11.6 ± 1.2.
B33 was tested, and the “FMC63 Binding Score” value was 13.6 ± 3.2.
With B34 the “FMC63 Binding Score” value was 12. ± 1.2.
For B35, the “FMC63 Binding Score” value was 13.1 ± 2.3.
For B36, the “FMC63 Binding Score” value was 12.8 ± 1.7.
B37 was tested, and the “FMC63 Binding Score” value was 16.3 ± 5.5.
For B38, the “FMC63 Binding Score” value was 16.5 ± 5.5.
B39 was tested, and the “FMC63 Binding Score” value was 14.2 ± 3.2.
In the case of B40, the “FMC63 Binding Score” value is reported as 13.5 ± 3.2.
In the case of B41, the “FMC63 Binding Score” value is reported as 15.9 ± 5.6.
B42 was tested, and the “FMC63 Binding Score” value was 16.3 ± 5.5.
B43 was tested, and the “FMC63 Binding Score” value was 12.6 ± 2.3.
With B44 the “FMC63 Binding Score” value was 13.8 ± 3.4.
For B45, the “FMC63 Binding Score” value was 12.6 ± 2.3.
B46 was tested, and the “FMC63 Binding Score” value was 12.7 ± 2.4.

— patent publication US20220387487A1, “COMPOSITIONS AND METHODS FOR TREATMENT OF CANCER” (Aleta Biotherapeutics Inc., priority 2019, published 2022)
